System: M. catarrhalis ATCC 49143
Test: Proteolytic digestion of intact cells followed by hemagglutination test
Format: cell-based, Moraxella catarrhalis
Details: intact cells digested 1 hour at room temperature
Method: All proteases were obtained from Sigma Chemicals (St. Louis, Mo.). Immediately following the protease treatment, cells were washed once in PBS and resuspended in 1 ml of PBS and the hemagglutinating activity was tested. Additionally, protease-treated bacterial cells were extracted with octyl glucoside so the outer membrane proteins could be resolved to identify specific proteins that may have been digested by the proteases.

B1: proteinase K: Protease from Sigma Chemicals (protein, UniProt P06873 106-384, looked up)
Proteinase K: AAQTNAPWGLARISSTSPGTSTYYYDESAGQGSCVYVIDTGIEASHPEFEGRAQMVKTYYYSSRDGNGHGTHCAGTVGSRTYGVAKKTQLFGVKVLDDNGSGQYSTIIAGMDFVASDKNNRNCPKGVVASLSLGGGYSSSVNSAAARLQSSGVMVAVAAGNNNADARNYSPASEPSVCTVGASDRYDRRSSFSNYGSVLDIFGPGTSILSTWIGGSTRSISGTSMATPHVAGLAAYLMTLGKTTAASACRYIADTANKGDLSNIPFGTVNLLAYNNYQA
**Q.** For B1, which “Effect of protease treatment on hemagglutination activity” value is on record?
**A.** The value was “destroyed the hemagglutination activity”.

Source: patent US7128910B2, “Moraxella catarrahalis outer membrane protein-106 polypeptide, gene sequences and uses thereof” (priority 1996, dated 2006)
